{"source": "patent US8709741B2", "about": "“Methods of diagnosing a plasmodium infection” (priority 2009, dated 2014)", "key": {"[1]": {"tested_on": "P. falciparum FcB1/Colombian strain", "assay": "Anti-Plasmodium activity assay (dose-response, 3H-hypoxanthine incorporation), culture with human serum", "format": "cell-based", "protocol": "The chloroquine-resistant P. falciparum FcB1/Colombian strain was used. Under the following culture conditions, the in vitro life cycle of the FcB1 strain was 48 hours. Cultures were grown in complete medium consisting of RPMI 1640 (Life Technologies, Inc.) supplemented with 11 mM glucose, 27.5 mM NaHCO3, 100 UI/mL penicillin, 100 μg/mL streptomycin, adjusted to pH 7.4 before addition of heat-inactivated human serum (A+ blood group, 8% final) or Albumax II® (0.5% final), according to the procedure of Trager and Jensen (1976). Parasites were routinely grown at 37° C. in human A+ RBCs (Red blood cells) at a 2% haematocrit and 2-6% parasitemia, in a 3% CO2, 6% O2 and 91% N2 atmosphere. Semi-synchronized cultures were established by Sorbitol (Lambros) treatment. Highly synchronized cultures (4 hour-window synchronization) were obtained by successive Plamion (Pasvol) and Sorbitol treatments. Parasitaemia and stage distribution were determined by optical examination of Diff-Quick stained culture smears. Parasitaemia (expressed in percent) is hundred times the number of parasitized erythrocytes divided by the total number of erythrocytes.\nDried preparations of the purified recombinant human sPLA2s were re-suspended at high concentration (usually 50 μM) in RPMI 0.05% BSA, and then tested individually for their capacity to inhibit the in vitro intra-erythrocytic development of P. falciparum. Dose-response assays based on ^3H-hypoxanthine incorporation by growing parasites were performed as in Guillaume et al. (2004). Radioactivity was measured with a 1450 Microbeta counter (Wallac, Perkin Elmer). Percentage of growth inhibition was calculated from the parasite-associated radioactivity compared with control without sPLA2. Values for the IC50 were determined from dose-response curves."}, "[2]": {"assay": "Specific activities of sPLA2s on human plasma (NEFA release, NEFA-C kit)", "format": "biochemical", "protocol": "Kinetic analysis of human plasma hydrolysis by sPLA2s was performed by mixing on ice 50 μL of crude plasma with recombinant sPLA2s at various final concentrations (respectively 2×, 5× and 10× the IC50 value). At time zero, the mixture was transferred to 37° C. Samples (7 μL) were taken after 5, 15, 30 and 60 minutes of incubation and quickly frozen at −20° C. An aliquot of plasma without enzyme was similarly processed. Concentration of non-esterified fatty acids (NEFAs) in each sample was measured by a discontinuous enzymatic method using the NEFA-C test kit from WAKO, following manufacturer's instructions. The amount of NEFAs in each enzyme-containing plasma sample was subtracted for NEFAs in enzyme-free plasma sample. Specific activity for each of the sPLA2s was determined from the linear part of the curve [NEFA]=f(t). Experiment was repeated three times with plasmas from different donors and different batches of sPLA2s.\nSpecific activities of sPLA2s on human plasma. Hydrolysis of plasma phospholipids by human and venom sPLA2s was assayed using different incubation times and enzymes concentrations. Hydrolysis was assessed by measuring the amount of NEFAs in samples using the colorimetric assay developed by WAKO (NEFA-C kit). Enzymatic production of NEFAs was corrected for endogenous production of NEFAs measured in the absence of sPLA2. Specific activity for each of the sPLA2s was determined from the linear part of the kinetic curve. Values are the mean of three independent experiments. SD: standard deviation. Anti-P. falciparum activities (IC50) of the respective sPLA2s are given for comparison."}, "[3]": {"tested_on": "P. falciparum blood stages", "assay": "Sensitivity of the P. falciparum blood stages to GX sPLA2 (15 h treatment, re-invasion)", "format": "cell-based", "settings": "100 nM", "protocol": "A parasite culture was synchronised on a 4 h window. Parasites aged 0-4 h post-invasion (p.i.) (rings, R), 18-22 h p.i. (trophozoites, T), and 34-38 h p.i. (schizonts, S) were incubated for 15 h in culture conditions with (▪) or without (□) 100 nM recombinant GX sPLA2. Afterwards cells were washed and let grow in normal culture conditions until re-invasion. GX sPLA2 inhibitory activity on the complete parasite cycle was assessed by incubating 0-4 h p.i. parasites for 48 h with GX sPLA2 (cycle). Parasitaemia in each sample was determined from Diff Quick-stained smears. For each stage, 100% parasitaemia was established from parasite growth in the absence of enzyme;\nA parasite culture was synchronised on a 4 h-window. Parasites aged 0-4 h post-invasion (rings), 18-22 h post-invasion (trophozoites), and 34-38 h post-invasion (schizonts) were adjusted to 1% parasitaemia and 2% haematocrit in complete medium, and were then incubated in a 96-well plate in a candle jar at 37° C., with or without 100 nM of recombinant GX sPLA2. After 15 hours, cells were centrifuged at 900×g for 2 min, washed in RPMI and re-suspended at a 2% haematocrit in fresh complete medium for further growth. When re-invasion had occurred (P. falciparum invades new RBCs when its 48 hour-development cycle is completed), parasitaemia (%) in each well was determined from Diff Quick-stained smears. GX sPLA2 inhibitory activity on the complete parasite cycle was assessed by incubating rings with the recombinant enzyme for 48 hours."}, "[4]": {"tested_on": "P. falciparum-infected erythrocytes", "assay": "Hydrolysis of serum-derived and Albumax II-derived parasite cultures (NEFA)", "format": "cell-based, human", "settings": "50 nM, 6 h, schizont-enriched culture", "protocol": "Parasites were grown in medium containing either 8% human serum (iRBC/S) or 0.5% Albumax II® (iRBC/A). Cultures were semi-synchronized so that they contain mainly mature parasites at the time of the experiment. Both cultures (2.5-3% parasitaemia) were then washed and cells were re-suspended at 50% haematocrit in RPMI 0.05% BSA with or without 50 nM of recombinant GX sPLA2, and incubated for 6 h in culture conditions. Non-infected RBCs (red blood cells) and human serum were processed similarly. Cell supernatants and serum were frozen at −20° C.; erythrocyte ghosts were prepared and frozen. NEFAs in each sample were measured in duplicate upon thawing, using the NEFA-C kit (WAKO). NEFA amount in healthy RBCs (RBC) and in infected cultures (iRBC) is expressed as the sum of NEFAs from paired ghosts and supernatants. Values are the mean of the duplicate measurement, subtracted for values in the absence of enzyme. The experiment was repeated twice and gave similar qualitative results. Results from one experiment are shown;\nParasites were grown for several cycles in culture medium supplemented either with 8% human serum or with 0.5% Albumax II®. Cultures were semi-synchronized by Sorbitol treatment 2-3 days prior to the experiment. […] NEFAs were measured using the NEFA-C kit (WAKO). […]"}}, "note": "Like-named read-outs stand apart in the source and are kept apart here.", "data": [{"molecule": "X: recombinant human group X secreted phospholipase A2 (protein, UniProt O15496 43-165, looked up) Group 10 secretory …: GILELAGTVGCVGPRTPIAYMKYGCFCGLGGHGQPRDAIDWCCHGHDCCYTRAEEAGCSPKTERYSWQCVNQSVLCGPAENKCQELLCKCDQEIANCLAQTEYNLKYLFYPQFLCEPDSPKCD", "values": [{"measurement": "IC50", "setting": "[1]; Table II, read-out: IC50 (nM), anti-P. falciparum activity given for comparison", "result": "2.9 ± 2.4", "unit": "nM"}, {"measurement": "IC50", "setting": "[1]; culture in human red blood cells and serum, mean of independent dose-response assays, read-out: IC50 ± SD (anti-P. falciparum activity)", "result": "2.9 ± 2.4", "unit": "nM"}, {"measurement": "inhibition of P. falciparum development in vitro", "setting": "[1]; standard P. falciparum cultures with serum", "result": "active against P. falciparum"}, {"measurement": "activity on plasma relative to GIIF sPLA2", "setting": "[2]; ratio of specific activities", "result": 9, "unit": "times"}, {"measurement": "activity on plasma relative to GV sPLA2", "setting": "[2]; ratio of specific activities", "result": 30, "unit": "times"}, {"measurement": "Specific activity ± SD (μmol NEFA/min × mg enzyme)", "setting": "[2]; whole human plasma, 37° C., linear part of kinetic curve, mean of three experiments", "result": "8.23 ± 0.92", "unit": "μmol NEFA/min × mg enzyme"}, {"measurement": "re-invasion after treatment of rings", "setting": "[3]; rings 0-4 h post-invasion", "result": 25, "unit": "%"}, {"measurement": "schizonts that completed the cycle after treatment", "setting": "[3]; schizonts 34-38 h post-invasion", "result": "less than 10%"}, {"measurement": "trophozoites that completed the cycle after treatment", "setting": "[3]; trophozoites 18-22 h post-invasion", "result": "less than 10%"}, {"measurement": "NEFA release from Albumax II-derived versus serum-derived parasite culture", "setting": "[4]", "result": "released at the same rate"}]}]}
